Paper PMC5973781

Target: mouse ANKRD16^3xArg (recombinant) (mouse) (UniProt A2AS55)
Experiment: SwitchSENSE

**Q.** Which fold change in affinity against wild type ANKRD16 does the source give for “mouse AlaRS^A734E (recombinant, SwitchSENSE and biochemical assays) (from UniProt Q8BGQ7 1-968) (enzyme)” here?
**A.** 2 fold
